Results on one sequence are retold here after CN105601719A, “拟组织金属蛋白酶抑制因子多肽及其应用” (Suzhou Puluoda Biological Science and Technology Co Ltd, priority 2016, dated 2016).

The target of experiment [1] is recombinant human matrix metalloproteinase-9 (重组人基质金属蛋白酶-9) (Homo sapiens, UniProt P14780). Kind of experiment: In vitro inhibition of matrix metalloproteinase-9 (fluorogenic peptide cleavage). The experiment is classed as biochemical. As to conditions: MMP-9; same fluorogenic substrate, 10 μM final; 37 °C; 100 μl.
In experiment [2] the target is T1, recombinant human matrix metalloproteinase-2 (重组人基质金属蛋白酶-2) (Homo sapiens, UniProt P08253).
T1 construct: 该酶用0.01μM的基质金属蛋白酶-3活性位点活化; made in house; host or cells: E. coli
T1 sequence (P08253 110-660): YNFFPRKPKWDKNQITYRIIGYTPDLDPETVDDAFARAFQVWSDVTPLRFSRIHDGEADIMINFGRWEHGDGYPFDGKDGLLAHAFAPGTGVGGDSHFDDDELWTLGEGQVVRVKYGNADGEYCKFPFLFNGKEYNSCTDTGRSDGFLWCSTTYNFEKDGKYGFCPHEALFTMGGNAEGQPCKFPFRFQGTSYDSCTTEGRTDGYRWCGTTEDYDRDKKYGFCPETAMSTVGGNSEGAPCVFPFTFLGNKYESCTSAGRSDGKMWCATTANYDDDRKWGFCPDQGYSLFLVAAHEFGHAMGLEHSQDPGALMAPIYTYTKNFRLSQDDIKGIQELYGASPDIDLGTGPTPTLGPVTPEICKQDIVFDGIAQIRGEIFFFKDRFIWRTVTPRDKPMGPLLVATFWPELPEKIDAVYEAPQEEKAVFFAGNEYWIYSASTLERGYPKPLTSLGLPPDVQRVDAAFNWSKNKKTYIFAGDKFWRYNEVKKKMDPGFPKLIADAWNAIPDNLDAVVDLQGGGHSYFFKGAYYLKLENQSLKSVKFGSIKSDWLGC
Kind of experiment: In vitro inhibition of matrix metalloproteinase-2 (fluorogenic peptide cleavage). The following applies: MMP-2; substrate Mca-Pro-Leu-Gly-Leu-Dpa-Ala-Arg-NH2; pH 7.4; 37 °C; 100 μl. It is filed as biochemical.

For experiment [3], the system named is human osteoblasts (人成骨细胞). Briefly: Growth of human osteoblasts cultured in vitro (MTT colorimetric assay). The following applies: 48 h, absorbance 620 nm. The experiment is classed as cell-based. (Tetrazolium assays rely on reduction of a dye to a coloured formazan, in cell work by metabolically active cells.)

As a reminder, the IC50 is the concentration that inhibits the measured activity by half. As a reminder, the EC50 is the midpoint of the concentration-response curve.

Chain of recombinant human matrix metalloproteinase-9 (重组人基质金属蛋白酶-9) (P14780 94-707): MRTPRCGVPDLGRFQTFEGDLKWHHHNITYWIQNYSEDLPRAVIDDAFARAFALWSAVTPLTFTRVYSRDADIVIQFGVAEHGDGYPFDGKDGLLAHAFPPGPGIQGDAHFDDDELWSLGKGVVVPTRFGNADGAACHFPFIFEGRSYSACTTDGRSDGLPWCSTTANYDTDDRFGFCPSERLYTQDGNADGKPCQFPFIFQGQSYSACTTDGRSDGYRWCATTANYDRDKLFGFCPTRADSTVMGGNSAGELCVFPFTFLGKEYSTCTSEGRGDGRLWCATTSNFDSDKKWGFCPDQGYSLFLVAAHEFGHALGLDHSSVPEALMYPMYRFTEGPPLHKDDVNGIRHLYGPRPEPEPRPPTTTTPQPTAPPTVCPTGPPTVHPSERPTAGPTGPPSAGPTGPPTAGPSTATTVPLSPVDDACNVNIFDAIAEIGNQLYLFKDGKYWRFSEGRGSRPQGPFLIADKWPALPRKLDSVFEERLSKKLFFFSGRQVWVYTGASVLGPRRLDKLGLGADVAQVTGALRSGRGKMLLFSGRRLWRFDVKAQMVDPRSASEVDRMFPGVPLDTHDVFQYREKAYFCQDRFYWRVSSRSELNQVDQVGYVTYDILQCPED

On to “PEPEFHLISAFWPSLPSYLDAA [实施例1, TIMP-mimetic 22-residue peptide made by Fmoc solid-phase synthesis]”, for which the results for the IC50 in experiment [1] and in experiment [2] were 25.8 µM and 75.1 µM, respectively. In experiment [3], this sequence displayed an EC50 of 13.2 µM.
